Experimental data from patent US20260125477A1 (BEIJING MABWORKS BIOTECH, published 2026).
Values belong to the binder of their own block, whether it stands above or below them.

Tests used:
[1] = biological target: T1, mouse B7-H3/CD276 protein, with His tag (mouse, UniProt Q8VE98 29-244, limits assumed); assay: SPR (Biacore T200), antibody captured on Protein A chip, His-tagged antigen injected
T1 construct: Bought protein
T1 sequence (looked up): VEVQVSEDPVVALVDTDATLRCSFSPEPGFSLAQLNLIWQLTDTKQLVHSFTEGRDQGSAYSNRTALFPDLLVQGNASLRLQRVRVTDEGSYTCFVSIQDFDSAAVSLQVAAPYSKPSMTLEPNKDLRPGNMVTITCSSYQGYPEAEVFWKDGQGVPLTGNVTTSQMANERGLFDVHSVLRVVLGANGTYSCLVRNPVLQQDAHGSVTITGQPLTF
Procedure: The fully human anti-human B7-H3 antibodies were tested for their binding affinity to human B7-H3 (4Ig), human B7-H3 (2Ig), monkey B7-H3 (monkey B7-H3/CD276 protein, with His tag, Cat #: B73-C52Ha, ACROBiosystems) and mouse B7-H3 protein (mouse B7-H3/CD276 protein, with His tag, Cat #: B73-M52H4, ACROBiosystems) by surface plasmon resonance (SPR) using Biacore T200 biosensor (Biacore, US) provided with a pre-fixed Protein A sensor chip. Briefly, the anti-human B7-H3 antibodies (1 μg/mL) were injected to the Biacore T200 biosensor at 10 μL/min for 20 sec, to achieve the desired protein density (100±30 RU).
The data as generated was analyzed using Biacore Insight V2.0.1 5.12933 with the one-to-one Langmuir binding model. The association rate (kₒₙ) and dissociation rate (koff) were obtained at the same time. The affinity was calculated as the quotient of the two kinetic rate constants (KD=koff/kₒₙ).

[2] = biological target: T2, human PD-L2/B7-DC protein, with His tag (human, UniProt Q9BQ51 20-219, limits assumed); assay: SPR (Biacore T200), antibody captured on Protein A chip
T2 construct: Bought protein
T2 sequence (looked up): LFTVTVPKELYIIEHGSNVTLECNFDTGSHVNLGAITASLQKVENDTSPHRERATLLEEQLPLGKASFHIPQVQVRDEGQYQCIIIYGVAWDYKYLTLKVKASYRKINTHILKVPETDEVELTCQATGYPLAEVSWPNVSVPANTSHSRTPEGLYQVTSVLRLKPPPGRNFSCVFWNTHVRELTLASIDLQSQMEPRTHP
Procedure: (§1) The anti-human B7-H3 antibodies were tested for their binding capability to B7 family proteins by SPR using Biacore T200 biosensor (Biacore, US) provided with a pre-fixed Protein A sensor chip.
(§2) The dissociation was monitored for 600 sec. The data was analyzed using Biacore 8k evaluation software version 3.0, to obtain the binding responses, and the protein concentration-binding response curves were plotted, to determine the cross-reaction of the anti-human B7-H3 antibodies to the B7 family proteins.

[3] = biological target: T3, human B7-H2/ICOSLG protein, with His tag (human, UniProt O75144 19-258, limits assumed); assay: as above
T3 construct: Bought protein
T3 sequence (looked up): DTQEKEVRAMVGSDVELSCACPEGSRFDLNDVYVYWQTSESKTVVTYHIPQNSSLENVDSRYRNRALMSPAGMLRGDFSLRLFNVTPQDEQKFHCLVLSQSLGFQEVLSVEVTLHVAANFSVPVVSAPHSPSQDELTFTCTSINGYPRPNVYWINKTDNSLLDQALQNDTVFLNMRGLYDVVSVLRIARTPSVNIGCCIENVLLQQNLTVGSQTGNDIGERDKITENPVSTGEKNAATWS
Procedure: as §1, §2

[4] = biological target: T4, human B7-2/CD86 protein, with His tag (human, UniProt P42081 26-247, limits assumed); assay: as above
T4 construct: Bought protein
T4 sequence (looked up): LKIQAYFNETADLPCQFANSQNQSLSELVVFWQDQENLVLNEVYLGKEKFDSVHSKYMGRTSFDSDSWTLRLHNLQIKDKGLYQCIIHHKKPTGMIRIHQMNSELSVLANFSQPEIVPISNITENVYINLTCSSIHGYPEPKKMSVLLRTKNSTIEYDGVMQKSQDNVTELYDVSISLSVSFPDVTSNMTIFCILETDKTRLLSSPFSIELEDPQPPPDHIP
Procedure: as §1, §2

Kd [1]: 274 nM | koff [1]: 0.0159 s⁻¹ | kon [1]: 58300 M⁻¹ s⁻¹
B1: 6B5 (antibody, human IgG1, kappa, V domains shown)
VH: QVQLVESGPGLVKPSQTLSLTCTVSDGSISSGGYYWSWIRQHPGKGLEWIGYIYYSGGTYYSPSLKSRVTISVDTSKNQFSLKLTSVTAADTAVYYCARRAGYSSSFDSWGQGILVTVSS
VL: EIVLTQSPLSLPVTPGEPASISCRSSQSLLYSNGYTYLDWYLQKPGQSPQFLIYLGFNRASGVPDRFSGSGSGTDFTLKISRVEAEDVGVYYCMQGLQTPYTFGQGTKLEIKR
notes: also called 6B5-WT; Ab6B5

binding result [2]: no binding (tested: 200 nM) | binding result [3]: no binding (tested: 200 nM) | binding result [4]: no binding (tested: 200 nM)
B2: 10F5 (antibody, human IgG1, kappa, V domains shown)
VH: QVQLVQSGAEVKKPGSSVKVSCKASGGTFSSQAISWVRQAPGQGLEWMGRIIPMLGIGDYAQSFQGRVTITADKSTSTAYLEVSSLGSEDTAVYYCAREGIAALGTNYYYGMDVWGQGTAVTVSS
VL: EIVMTQSPSSVSASVGDRVTITCRASQGISRWLAWYQQKPGKAPKLLIYVASSLQSGVPSRFSGSGSGTDFTLTISSLQPEDFATYYCQQANSFPFTFGPGTKVDIRR
notes: also called Ab10F5
